Source: publication PMC10464304, “Refined read‐out: The hUHRF1 Tandem‐Tudor domain prefers binding to histone H3 tails containing K4me1 in the context of H3K9me2/3” (Protein Science : A Publication of the Protein Society, 2023)
Numbering of substitutions follows the chain as printed. One block for each binder: values may come before it. No end group written: not given here. Me3 = trimethyl (trimethyl-lysine)

Legend:
Assay in all cases: fluorescence polarisation; fluorescence anisotropy titration; 100 nM FITC-labeled peptide in the cuvette, protein added stepwise; 23°C; 100 mM KCl, 20 mM HEPES pH 7.5, 10% v/v glycerol
Conditions in all cases: both partners purified
[1] = target: T1, GST-fused Tandem-Tudor domain (TTD) of human UHRF1, residues 126-280, wild type (human, UniProt Q96T88 126-280)
T1 construct: Tandem Tudor domain (TTD) of human UHRF1, UniProt Q96T88, residues 126-280; borders as in Rothbart et al., 2012; also called hUHRF1-TTD; UHRF1-TTD; source: E. coli, purified (Glutathione Agarose 4B); not shown: GST, N-terminal, kept
T1 sequence (looked up): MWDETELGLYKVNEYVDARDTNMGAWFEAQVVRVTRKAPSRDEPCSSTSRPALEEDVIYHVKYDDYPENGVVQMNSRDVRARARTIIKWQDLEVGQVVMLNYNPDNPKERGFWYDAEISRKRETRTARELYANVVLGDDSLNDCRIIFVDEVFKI

[2] = target: T2, GST-hUHRF1-TTD (126-280) R207Q (human, UniProt Q96T88 126-280, R207Q)
T2 construct: Tandem Tudor domain (TTD) of human UHRF1, UniProt Q96T88, residues 126-280; source: E. coli, purified (Glutathione Agarose 4B); not shown: GST, N-terminal, kept
T2 sequence (looked up): T1 sequence (looked up) with R82Q

[3] = target: T3, GST-hUHRF1-TTD (126-280) R207H (human, UniProt Q96T88 126-280, R207H)
T3 construct: Tandem Tudor domain (TTD) of human UHRF1, UniProt Q96T88, residues 126-280; source: E. coli, purified (Glutathione Agarose 4B); not shown: GST, N-terminal, kept
T3 sequence (looked up): T1 sequence (looked up) with R82H

[4] = target: T4, GST-hUHRF1-TTD (126-280) R207E (human, UniProt Q96T88 126-280, R207E)
T4 construct: Tandem Tudor domain (TTD) of human UHRF1, UniProt Q96T88, residues 126-280; also called TTD R207E; source: E. coli, purified (Glutathione Agarose 4B); not shown: GST, N-terminal, kept
T4 sequence (looked up): T1 sequence (looked up) with R82E

[5] = target: T5, GST-hUHRF1-TTD (126-280) M224A (human, UniProt Q96T88 126-280, M224A)
T5 construct: Tandem Tudor domain (TTD) of human UHRF1, UniProt Q96T88, residues 126-280; source: E. coli, purified (Glutathione Agarose 4B); not shown: GST, N-terminal, kept
T5 sequence (looked up): T1 sequence (looked up) with M99A

[6] = target: T6, GST-hUHRF1-TTD (126-280) F278A (human, UniProt Q96T88 126-280, F278A)
T6 construct: Tandem Tudor domain (TTD) of human UHRF1, UniProt Q96T88, residues 126-280; source: E. coli, purified (Glutathione Agarose 4B); not shown: GST, N-terminal, kept
T6 sequence (looked up): T1 sequence (looked up) with F153A

[7] = target: T7, GST-hUHRF1-TTD (126-280) D142A (human, UniProt Q96T88 126-280, D142A)
T7 construct: Tandem Tudor domain (TTD) of human UHRF1, UniProt Q96T88, residues 126-280; also called TTD D142A mutant; source: E. coli, purified (Glutathione Agarose 4B); not shown: GST, N-terminal, kept
T7 sequence (looked up): T1 sequence (looked up) with D17A

[8] = target: T8, GST-hUHRF1-TTD (126-280) D142E (human, UniProt Q96T88 126-280, D142E)
T8 construct: Tandem Tudor domain (TTD) of human UHRF1, UniProt Q96T88, residues 126-280; source: E. coli, purified (Glutathione Agarose 4B); not shown: GST, N-terminal, kept
T8 sequence (looked up): T1 sequence (looked up) with D17E

[9] = target: T9, GST-hUHRF1-TTD (126-280) D142N (human, UniProt Q96T88 126-280, D142N)
T9 construct: Tandem Tudor domain (TTD) of human UHRF1, UniProt Q96T88, residues 126-280; source: E. coli, purified (Glutathione Agarose 4B); not shown: GST, N-terminal, kept
T9 sequence (looked up): T1 sequence (looked up) with D17N

[10] = target: T10, GST-hUHRF1-TTD (126-280) E153A (human, UniProt Q96T88 126-280, E153A)
T10 construct: Tandem Tudor domain (TTD) of human UHRF1, UniProt Q96T88, residues 126-280; also called E153A TTD mutant; source: E. coli, purified (Glutathione Agarose 4B); not shown: GST, N-terminal, kept
T10 sequence (looked up): T1 sequence (looked up) with E28A

[11] = target: T11, GST-hUHRF1-TTD (126-280) E153D (human, UniProt Q96T88 126-280, E153D)
T11 construct: Tandem Tudor domain (TTD) of human UHRF1, UniProt Q96T88, residues 126-280; also called TTD E153D; source: E. coli, purified (Glutathione Agarose 4B); not shown: GST, N-terminal, kept
T11 sequence (looked up): T1 sequence (looked up) with E28D

[12] = target: T12, GST-hUHRF1-TTD (126-280) E153Q (human, UniProt Q96T88 126-280, E153Q)
T12 construct: Tandem Tudor domain (TTD) of human UHRF1, UniProt Q96T88, residues 126-280; source: E. coli, purified (Glutathione Agarose 4B); not shown: GST, N-terminal, kept
T12 sequence (looked up): T1 sequence (looked up) with E28Q

[13] = target: T13, GST-hUHRF1-TTD (126-280) R207A (human, UniProt Q96T88 126-280, R207A)
T13 construct: Tandem Tudor domain (TTD) of human UHRF1, UniProt Q96T88, residues 126-280; source: E. coli, purified (Glutathione Agarose 4B); not shown: GST, N-terminal, kept
T13 sequence (looked up): T1 sequence (looked up) with R82A

[14] = target: T14, GST-hUHRF1-TTD (126-280) R207L (human, UniProt Q96T88 126-280, R207L)
T14 construct: Tandem Tudor domain (TTD) of human UHRF1, UniProt Q96T88, residues 126-280; source: E. coli, purified (Glutathione Agarose 4B); not shown: GST, N-terminal, kept
T14 sequence (looked up): T1 sequence (looked up) with R82L

Kd [1]: 240 nM | Kd [2]: 390 nM | Kd [3]: 460 nM | Kd [4]: 270 nM | Kd [5]: 430 nM | Kd [6]: 3900 nM | Kd [7]: 2700 nM | Kd [8]: 580 nM | Kd [9]: 2 nM | Kd [10]: 2 nM | Kd [11]: 50 nM | Kd [12]: 250 nM | Kd [13]: 370 nM | Kd [14]: 440 nM
B1: FITC-labeled H3(1-19) peptide with K4me1 and K9me3 (peptide, UniProt P68431 2-20, looked up)
peptide: ARTK(Me)QTARK(Me3)STGGKAPRKQ
modifications: also: FITC-labeled (position not given here)
notes: histone H3 N-terminal tail, residues 1-19; also called H3K4me1-K9me3; H3 K4me1-K9me3

Kd [13]: 900 nM | Kd [14]: 900 nM
B2: FITC-labeled H3(1-19) peptide with K9me3 (peptide, UniProt P68431 2-20, looked up)
peptide: ARTKQTARKSTGGKAPRKQ
modifications: K9me3 (trimethyl-lysine at 9); FITC-labeled
notes: histone H3 N-terminal tail, residues 1-19; also called H3K9me3; H3 K9me3
